The chains are these.
B1: FLAG-tagged ELP1, purified recombinant (natural protein, human, UniProt O95163 1-1332, looked up)
chain: MRNLKLFRTLEFRDIQGPGNPQCFSLRTEQGTVLIGSEHGLIEVDPVSREVKNEVSLVAEGFLPEDGSGRIVGVQDLLDQESVCVATASGDVILCSLSTQQLECVGSVASGISVMSWSPDQELVLLATGQQTLIMMTKDFEPILEQQIHQDDFGESKFITVGWGRKETQFHGSEGRQAAFQMQMHESALPWDDHRPQVTWRGDGQFFAVSVVCPETGARKVRVWNREFALQSTSEPVAGLGPALAWKPSGSLIASTQDKPNQQDIVFFEKNGLLHGHFTLPFLKDEVKVNDLLWNADSSVLAVWLEDLQREESSIPKTCVQLWTVGNYHWYLKQSLSFSTCGKSKIVSLMWDPVTPYRLHVLCQGWHYLAYDWHWTTDRSVGDNSSDLSNVAVIDGNRVLVTVFRQTVVPPPMCTYQLLFPHPVNQVTFLAHPQKSNDLAVLDASNQISVYKCGDCPSADPTVKLGAVGGSGFKVCLRTPHLEKRYKIQFENNEDQDVNPLKLGLLTWIEEDVFLAVSHSEFSPRSVIHHLTAASSEMDEEHGQLNVSSSAAVDGVIISLCCNSKTKSVVLQLADGQIFKYLWESPSLAIKPWKNSGGFPVRFPYPCTQTELAMIGEEECVLGLTDRCRFFINDIEVASNITSFAVYDEFLLLTTHSHTCQCFCLRDASFKTLQAGLSSNHVSHGEVLRKVERGSRIVTVVPQDTKLVLQMPRGNLEVVHHRALVLAQIRKWLDKLMFKEAFECMRKLRINLNLIYDHNPKVFLGNVETFIKQIDSVNHINLFFTELKEEDVTKTMYPAPVTSSVYLSRDPDGNKIDLVCDAMRAVMESINPHKYCLSILTSHVKKTTPELEIVLQKVHELQGNAPSDPDAVSAEEALKYLLHLVDVNELYDHSLGTYDFDLVLMVAEKSQKDPKEYLPFLNTLKKMETNYQRFTIDKYLKRYEKAIGHLSKCGPEYFPECLNLIKDKNLYNEALKLYSPSSQQYQDISIAYGEHLMQEHMYEPAGLMFARCGAHEKALSAFLTCGNWKQALCVAAQLNFTKDQLVGLGRTLAGKLVEQRKHIDAAMVLEECAQDYEEAVLLLLEGAAWEEALRLVYKYNRLDIIETNVKPSILEAQKNYMAFLDSQTATFSRHKKRLLVVRELKEQAQQAGLDDEVPHGQESDLFSETSSVVSGSEMSGKYSHSNSRISARSSKNRRKAERKKHSLKEGSPLEDLALLEALSEVVQNTENLKDEVYHILKVLFLFEFDEQGRELQKAFEDTLQLMERSLPEIWTLTYQQNSATPVLGPNSTANSIMASYQQQKTSVPVLDAELFIPPKINRRTQWKLSLLD
notes: ELP1 (IKBKAP), cDNA excised from pCMV6-XL5-ELP1 (OriGene) and inserted into pcDNA3.1(+)-3xFLAG; Seen as a dimer after BS3 cross-linking; Purified in one step from human cells, so other Elongator subunits might be present (my surmise); also called FLAG-ELP1; ELP1 dimer

Data set [1] deals with the molecule itself. Description: cross-linking; 10 µM of purified proteins in 0.1 M sodium phosphate, 0.15 M NaCl, pH 7.4, 30 min at RT; BS3 at 0, 0.1 and 0.5 mM for 1 h at 4 °C; gel shift read by immunoblot; single proteins with the highest amount of BS3 as controls.
Data set [2] deals with B1. Nature of the data set: co-IP; purified proteins: 1 µg of protein with 1 µg of antibody overnight at 4 °C in 200 µl IP buffer (20 mM HEPES pH 7.9, 140 mM NaCl, 0.01% NP-40), Protein-A sepharose beads, immunoblot. To be noted: both partners purified. In general terms: Immunoblotting shows a protein as a band on a membrane.

In general, stoichiometry N refers to the number of molecules, sites or subunits per partner or assembly. For the molecule B1, the “stoichiometry N” value in data set [1] was 2.

B2: AAG lacking 80 N-terminal amino acids, purified recombinant (domain or fragment, human, UniProt P29372 81-298, looked up)
chain: GHLTRLGLEFFDQPAVPLARAFLGQVLVRRLPNGTELRGRIVETEAYLGPEDEAAHSRGGRQTPRNRGMFMKPGTLYVYIIYGMYFCMNISSQGDGACVLLRALEPLEGLETMRQLRSTLRKGTASRVLKDRELCSGPSKLCQALAINKSFDQRDLAQDEAVWLERGPLEPSEPAVVAAARVGVGHAGEWARKPLRFYVRGSPWVSVVDRVAEQDTQA
notes: Alkyladenine DNA glycosylase (AAG, MPG), human, lacking the first 80 N-terminal amino acids; also called Δ80 AAG; ∆80AAG
Take B2: the binding result in data set [2] was “binds”.

(Values after PMC6884549, “Alkyladenine DNA glycosylase associates with transcription elongation to coordinate DNA repair with gene expression” (Nature Communications, 2019).)
